The DeepSol protein solubility set

Experiment: soluble on expression in E. coli; label from the status in PepcDB or PDB records

Sequence	soluble on expression in E. coli
GAMGMQQGQMAYDRAITVFSPDGRLFQVEYAREAVKKGSTALGMKFANGVLLISDKKVRSRLIEQNSIEKIQLIDDYVAAVTSGLVADARVLVDFARISAQQEKVTYGSLVNIENLVKRVADQMQQYTQYGGVRPYGVSLIFAGIDQIGPRLFDCDPAGTINEYKATAIGSGKDAVVSFLEREYKENLPEKEAVTLGIKALKSSLEEGEELKAPEIASITVGNKYRIYDQEEVKKFL	soluble
GAMGSIQENLIFPMDNPKGIDGFTNLKEKDIATNENKLLRTITADKMIPAFLITPISSQIAGKVIAQVESDIFAHMGKAVLIPKGSKVIGYYSNNNKMGEYRLDIVWSRIITPHGINIMLTNAKGADIKGYNGLVGELIERNFQRYGVPLLLSTLTNGLLIGITSALNNRGNKEGATNFFGDYLLMQLMRQSGMGINQVVNQILRDKSKIAPIVVIREGSRVFISPNTDIFFPIPRENEVIAEFLK	soluble
GAMGSQQIATAKDKYEWLVSRIVKNHNENWLSVSRKMQASPEYQDYVYLEGTQKAKKLFLQHIHRLKHE	soluble
GAMTKPRFTTGLVYDTLMLKHQCTAGSSSSHPEHAGRIQSIWSRLQETGLRGKCEAIRGRKATLEELQTVHSEAHTLLYGTNPLNRQKLDSKKLLGSLASVFVRLPCGGVGVDSDTIWNEVHSAGAARLAVGCVVELVFKVATGELKNGFAVVRPPGHHAEESTPMGFCYFNSVAVAAKLLQQRLSVSKILIVDWDVHHGNGTQQAFYSDPSVLYMSLHRYDDGNFFPGSGAPDEVGTGPGVGFNVNMAFTGGLDPPMGDAEYLAAFRTVVMPIASEFAPDVVLVSSGFDAVEGHPTPLGGYNLSARCFGYLTKQLMGLAGGRIVLALEGGYDLTAICDASEACVSALLGNELDPLPEKVLQQRPNANAVRSMEKVMEIHSKYWRCLQRTTSTAGRSLIEAQTCENEEAETVT	soluble
GAPLKAVSAFAPPLHTQDFNLYSGEVHAHFTDYEAGMAFARQENKPVLLDFSGHGCVNCRKMENAVWIDPTVKSMLEKDYVLITLMVDEKKPLAEPLTIVFDGKEKTLRTVGDKWSYLQSHKFGANAQPFYVAIDHEGKPLSASYSYNEDVPLYVDFLKGGLQEFKKRKNK	not soluble
GAQNQDCAFFFPNQEGEQITRNCYTADGKLTNILVYRVDQAYEYPSGMEVVANYTFADAAGKTLNSGQMVARCSDGNFSMSMGDVATFPTALNMMNADVYMMGDLMNYPDAFSNPMNPGDDDEFDDGTLRLYQKGNKNNRAEISVFDREFVTTETVNTPAGAFYCTKVKYEMNIWTPKETIKGYGYEWYAPNIGIVRSEQYNNKKELQSYSVLERIKK	soluble
GASLAPLRRMREVAARVSANSLTTRLDASRMPEELRGLAGELNAMLARLEEAFQRLSAFSADIAHELRTPLTSLLTQTQVVLSRPRSLEDYREALHGNLEELERLTAMVNDMLLLAKADHGLLAPSRQALDLGAEVDSLLEFYQPLAEDRDIRLLREGSLSLPGDRGMLRRVLANLLDNALRFTADGGEIRIRLGDRRLSVENQGPAIPPERLPRLFDRFYRADPARREGQGEHAGLGLAICRSIVQAHGGEIRCESADGWTRFVIDFAR	not soluble
GASSLKDEVPTETSEDFGFKFLGQKQILPSFNEKLPFASLQNLDISNSKSLFVAASGSKAVVGELQLLRDHITSDSTPLTFKWEKEIPDVIFVCFHGDQVLVSTRNALYSLDLEELSEFRTVTSFEKPVFQLKNVNNTLVILNSVNDLSALDLRTKSTKQLAQNVTSFDVTNSQLAVLLKDRSFQSFAWRNGEMEKQFEFSLPSELEELPVEEYSPLSVTILSPQDFLAVFGNVISETDDEVSYDQKMYIIKHIDGSASFQETFDITPPFGQIVRFPYMYKVTLSGLIEPDANVNVLASSCSSEVSIWDSKQVIEPSQDSERAVLPISEETDKDTNPIGVAVDVVTSGTILEPCSGVDTIERLPLVYILNNEGSLQIVGLFHVAAIKS	soluble
GDIVAVHPIRRGTAEAIEVVAHGDKKTSAIIGRRISGIKWPEGCHIAAVVRAGTGETIMGHHTETVIQDGDHIIFFVSRRRILNELEKLIQVKMGFFG	not soluble
GDKLLPKTLSKEIVSEPFAKNQLREKARLTNIKGLEIPRVSYTLDDDDFITDVETAKELKAKGDTVKFTTNKFKVFAAISDTVIHGSDVDLVNWVENALQSGLAAKERKDALAVSPKSGLEHMSFYNGSVKEVEGADMYDAIINALADLHEDYRDNATIYMRYADYVKIISVLSNGTTNFFDTPAEKVFGKPVVFTDAAVKPIVGDFNYFGINYDGTTYDTDKDVKKGEYLFVLTAWYDQQRTLDSAFRIAKA	soluble
GEGSPVGIAILGYGTVGSQVLRLLTENHNDFQHRAGGPLEIKGVAASSVEKHRGSLADQLGLLTDDARSLIARDDVDIVVEVIGGIDYPRELILEALHSGKSVVTANKALVAAHSEELAAAADEAGVDLYFEAAVAAAIPVLGPLRRSLAGDQIQSVAGIVNGTTNFILDAMDSTGASYDDMLAEATRLGYAEADPTADVEGHDAASKAAILASLAFHTRVTYADVYCEGISKITADDINAAKEAGFTIKLLAICERLNVDGVEKVSARVHPTLVPRNHPLASVDKSFNAIFVEAEAAGRLMFYGNGAGGNPTASAVLGDIVGAARNKVFGGRAPGESTYADLPIAPFGEVPTRFHIDMEVEDRVGVLADLAKTFSNHGISLRTVRQAEKDGHARLIVVTHTAKESELEATVEQIKNSDSVKKINSVIRLAG	not soluble
GETASSLWIDAAVAVSVPFQLNSVADRMNQGFSRLYQAYLLSRLRRIFLKKLNHLNNSPFSKSDLLSLKTFWDFDERITAPINGFKNAHEYYQKASSRQYLKNITTPTLIIHAQDDPFMTPDAIPASKELSSQTTLELSEYGGHVGFIAGTGKNSSQPVYWLEQRIPEFLLEYLS	not soluble
GFKVIMVTDVGGLGDKSFNDGTWAGIKQAAEELGIEAKVIQSYEQSDYIPNLSKAAEEADLVFAVGFMMTNDLFKVAKQYPDTYFVGIDITPPEGQILPNVLTFTFKEQEAAFLVGYVAAAMTKTGMVGFVGGIPIPPVERFRYGYEAGIKTYSVLHKKNVKILRGYTQDFEDPKKGKDLAMSQFAEGADIVFHASGACGNGVIEAAREKFSALAGSDKLVDLIDYYTTNGKGFFAIGVDMDQDYMAPGAVLTSAMKRVD	soluble
GGDVLERQMALMAQAAQRVQDMKRFVWDSLDSMPEPVVVTDLAGTVLIANHAAKRYCARLSAPAPEGRPLRVAFGELSFVKTVDGNAEQDVEIRSHWPAALDPTRDYENDVMERGIEVRDLSGLDHLLRYAPCTNAQGNVTGWIASLVDVTALHAAERQREEALHLLSHDM	soluble
GGFDGHTHSAGKINVGRFINPNDARKNPVPGLSGQVARTEKTRAQVGYNTPNTYAIGYRYAKLGYTTICEAAIPLLAARHTHEEFKEIPILDKMGLSLFGSNWQVMEYIRDKEPEKLAAYIAWGLKASRGYGVKIVNPGGGEAWGWGRNVSGLYDPVPNFDVTPAEILLGLAEANERLQLPHSIHVHCNNLGKPGNYATTIETMKLLEKVKPSRDRQALHVTHVQFNAYAGTSWRDFETGAPMVADYINGANHLTFDLGQVIFGPAVTMTADGPVEYANSRMLHEKWSNQDIELEDASGVVPLFYSPKSFVNAVQWAIGLELALLVKDPWKVMFTTDSPNGGSFVNYPEAFTYLMSAKRREEVISGFSKMALDRMVLPGIDRELDFYELAVMTRSTQSKMYSMPEKGNLKVGSDADIAIYDILPGQVDPSTEYAKVKKAFSAASYTLKSGEVVVKDG	not soluble
GGGGGGMNLRRRGIVVSFHSNMVTVEDEETGERILCKLRGKFRLQNLKIYVGDRVEYTPDETGSGVIENVLHRKNLLTKPHVANVDQVILVVTVKMPETSTYIIDKFLVLAEKNELETVMVINKMDLYDEDDLRKVRELEEIYSGLYPIVKTSAKTGMGIEELKEYLKGKISTMAGLSGVGKSSLLNAINPGLKLRVSEVSEKLQRGRHTTTTAQLLKFDFGGYVVDTPGFANLEINDIEPEELKHYFKEFGDKQCFFSDCNHVDEPECGVKEAVENGEIAESRYENYVKMFYELLGRRKK	soluble
GGLPIVGDIFRFLDNGRTGLYENYKEFSTELNMTRESNGVKVTINDVISDGRTLSITYSLESEQDLGDDPIILGGLDIMDAHGSSGSGKMTKVTEKKYVGMVTTTHHDSNKKDKVNFRWNIEGIEIPDRKKSIQGHWNFALTVKSMDSKERTIGGSSEKEGIKANMEKVAMSPVSFILYYNQEVSKGARKEWDSVDVELTVKDDLGNDYSGEGNGGSGNDPYNIRWSATFQKLNENATKLIVTPRVHLRVHTPENHGGVEYVNGKEKKIEVPNKEAKKKDIVLDDIVIDLKK	soluble
GGTKTAAEAAAPAVHPVSGLQIVPVTVTGTSGRHVFRSELARTSAEQAKGLMFRTELGDEEGMIFLRNPPDMATFWMRNTVIPLDIIFVGLDRRVMNIAANAVPYDETPLPAAGPTLAVLEINGGLAARLGIKPGDKVEW	soluble
GHHHHHHHHHHGLVPRGSHMYFQKARLIHAELPLLAPFKTSYGELKSKDFYIIELINEEGIHGYGELEAFPLPDYTEETLSSAILIIKEQLLPLLAQRKIRKPEEIQELFSWIQGNEMAKAAVELAVWDAFAKMEKRSLAKMIGATKESIKVGVSIGLQQNVETLLQLVNQYVDQGYERVKLKIAPNKDIQFVEAVRKSFPKLSLMADANSAYNREDFLLLKELDQYDLEMIEQPFGTKDFVDHAWLQKQLKTRICLDENIRSVKDVEQAHSIGSCRAINLKLARVGGMSSALKIAEYCALNEILVWCGGMLEAGVGRAHNIALAARNEFVFPGDISASNRFFAEDIVTPAFELNQGRLKVPTNEGIGVTLDLKVLKKYTKSTEEILLNKGWS	soluble
GHMNAYLSDQPVRLSPLRDEQGNQPRFGLLLEPGRPGMHVGELPAQWLKGLARSHHLLLLRGFAAFADAESLTRYCHDFGEVMLWPFGAVLELVEQEGAEDHIFANNYVPLHWDGMYLETVPEFQVFHCVDAPGDSDGGRTTFSSTPAALQLADSSELELWRRASGRYQRSAAHYSSRSAAPIVERHPRREFPILRFCEPPVEGDASFINPSEFHYDGIAPEQRGELLASLRRCLYHPQAHYAHRWRSDDLVIADNLTLLHGREAFAHRAPRHLRRVHIHAEPALRNPHLQRD	soluble
GHMNVAKREFIRGMMAHYRASLPPPEHSVVIHELQKRVLDIGMLAVNKAHVELFGSHVSGFCTPHSDADISLTYRNFSPWLQGMERVDEQNNKRMTRFGKEASAMGMEDVRYIRARIPVVQFTDGVTGIHCDVSIGNIGGVENSKILCAIRQVFPDFYGAYIHLVKAWGKAREVIAPERSTFNSFTVTTMALMVLQELGLLPVFSKPTGEFGELTVADAEMLLQEFKLPPIYDSLHDDDEKLGEAVFFCLQRFAEYYAKYDFSAGTVSLIHPRRHRTVYERVVRRHLELLGSRKRLEWEKHIAEHKEDGPLDENDFSASMQNETTQRPSNSPYVVEDFVNYVNCGRRVQASRVRHIQQEFNRLREMLIDKESELKFDEVFRESDTVP	soluble
GHMTKLFSKVKESIEGIKMPSTLTINGKAPIVAYAELIAARIVNALAPNSIAIKLVDDKKAPAAKLDDATEDVFNKITSKFAAIFDNGDKEQVAKWVNLAQKELVIKNFAKLSQSLETLDSQLNLRTFILGGLKYSAADVACWGALRSNGMCGSIIKNKVDVNVSRWYTLLEMDPIFGEAHDFLSKSLLELKKSANVGKKKETHKANFE	soluble
